A word on the EC50: it is the concentration needed to bring the measured effect to its halfway point. A lower EC50 goes with greater potency. What is called pEC50 is the EC50 on a negative log10 scale, so that one unit is a factor of ten. Lower therefore signals a high EC50.

Non-standard residues stand in square brackets, D forms with d. No end group written: not given here. *: point of attachment. PEG8 = NCCOCCOCCOCCOCCOCCOCCOCCOCCC(=O)O; Palmitoyl = CCCCCCCCCCCCCCCC(=O)*; Tic = O=C(O)[C@@H]1Cc2ccccc2CN1

Common to all, as to experiment: cell-based or functional assay
For test [1], the target named is T1, mouse CMKLR1 (chemerin receptor) (mouse, UniProt P97468 1-371).
T1 sequence (looked up): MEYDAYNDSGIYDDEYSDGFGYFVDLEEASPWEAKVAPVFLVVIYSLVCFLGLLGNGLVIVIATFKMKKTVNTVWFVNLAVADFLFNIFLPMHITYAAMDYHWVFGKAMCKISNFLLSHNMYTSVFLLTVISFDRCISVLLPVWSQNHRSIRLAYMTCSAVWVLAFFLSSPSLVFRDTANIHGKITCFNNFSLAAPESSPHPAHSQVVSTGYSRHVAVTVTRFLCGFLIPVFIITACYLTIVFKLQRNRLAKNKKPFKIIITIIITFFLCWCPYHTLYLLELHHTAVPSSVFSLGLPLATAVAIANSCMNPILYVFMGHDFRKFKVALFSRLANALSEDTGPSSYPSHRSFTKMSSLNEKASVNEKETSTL

The target of test [2] is T2, human CMKLR1 (chemerin receptor) (human, UniProt Q99788 1-373).
T2 sequence (looked up): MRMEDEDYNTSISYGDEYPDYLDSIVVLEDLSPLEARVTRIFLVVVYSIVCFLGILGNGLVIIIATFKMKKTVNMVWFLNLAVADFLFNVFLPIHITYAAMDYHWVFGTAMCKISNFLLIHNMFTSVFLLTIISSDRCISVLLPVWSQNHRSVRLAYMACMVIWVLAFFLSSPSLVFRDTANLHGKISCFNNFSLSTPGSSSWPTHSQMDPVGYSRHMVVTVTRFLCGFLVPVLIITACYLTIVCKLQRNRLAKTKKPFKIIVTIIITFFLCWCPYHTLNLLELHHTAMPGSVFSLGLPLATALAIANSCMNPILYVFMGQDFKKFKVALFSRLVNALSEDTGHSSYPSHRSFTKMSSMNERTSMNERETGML

In another test the target is neurokinin 1 receptor (human, UniProt P25103 1-407).
Sequence of neurokinin 1 receptor (P25103 whole entry): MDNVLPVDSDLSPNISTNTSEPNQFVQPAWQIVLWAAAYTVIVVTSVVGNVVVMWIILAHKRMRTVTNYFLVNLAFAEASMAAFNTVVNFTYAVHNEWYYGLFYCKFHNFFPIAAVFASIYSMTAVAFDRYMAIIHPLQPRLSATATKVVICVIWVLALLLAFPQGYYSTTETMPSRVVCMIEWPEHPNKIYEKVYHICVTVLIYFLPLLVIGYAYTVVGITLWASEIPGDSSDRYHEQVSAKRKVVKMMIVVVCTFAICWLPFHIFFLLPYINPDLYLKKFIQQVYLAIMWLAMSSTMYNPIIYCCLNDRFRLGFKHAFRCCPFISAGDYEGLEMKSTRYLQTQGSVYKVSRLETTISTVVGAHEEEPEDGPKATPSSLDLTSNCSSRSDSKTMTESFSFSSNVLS

B1: s-Chem 21-157 (soluble recombinant human chemerin corresponding to amino acids 21-157) (ligand)
chain: ELTEAQRRGLQVALEEFHKHPPVQWAFQETSVESAVDTPFPAGIFVRLEFKLQQTSCRKRDWKKPECKVRPNGRKRKCLACIKLGSEDKVLGRLVHCPIETQVLREAEEHQETQCLRVQRAGEDPHSFYFPGQFAFS
As to B1, in test [1], the response was half-maximal at 13.7 nM (EC50) and the pEC50 came to 8.01.

B2: l-Stable Chem (lipidated stable chemerin peptide) (peptide)
peptide: {Palmitoyl-PEG8}-GG[dY]FLPSQF[dA][Tic]S
modifications: also: D-Ser, which S not given here
In the case of B2, in test [1], the “EC50” value was 2 nM; the “EC50 (nM), + wash” value is 10.4 nM; the negative-log EC50 (pEC50) was found to be 8.7; the “pEC50, + wash” value came to 7.96. For the same molecule, in test [2], the “EC50” value turned out to be 2.6 nM; the “EC50 (nM), + wash” value was 27.1 nM; the pEC50 stood at 8.59; the “pEC50, + wash” value was 7.6.

B3: s-Stable Chem (soluble stable chemerin peptide) (peptide)
peptide: H-[dY]FLPSQF[dA][Tic]S
modifications: also: D-Ser, which S not given here
B3: in test [1], it took 11.9 nM to reach a half-maximal effect (EC50) and the pEC50 came to 7.92. For the same molecule, in test [2], it took 60.6 nM to reach a half-maximal effect (EC50) and the pEC50 was 7.21.

B4: l-SubP-COOH (lipidated Substance P with a C-terminal free acid) (peptide)
peptide: {Palmitoyl-PEG8}-KGGRPKPQQFFGLM-OH
SMILES: CCCCCCCCCCCCCCCC(=O)NCCOCCOCCOCCOCCOCCOCCOCCOCCC(=O)N[C@@H](CCCCN)C(=O)NCC(=O)NCC(=O)N[C@@H](CCCNC(=N)N)C(=O)N1CCC[C@H]1C(=O)N[C@@H](CCCCN)C(=O)N1CCC[C@H]1C(=O)N[C@@H](CCC(N)=O)C(=O)N[C@@H](CCC(N)=O)C(=O)N[C@@H](Cc1ccccc1)C(=O)N[C@@H](Cc1ccccc1)C(=O)NCC(=O)N[C@@H](CC(C)C)C(=O)N[C@@H](CCSC)C(=O)O
B4 displayed an EC50 in the test with neurokinin 1 receptor of 6.1 nM.

The record behind these values is patent US10233219 (TUFTS MEDICAL CENTER, dated 2019).
